# Measurements published in publication PMC10579536 (Research and Practice in Thrombosis and Haemostasis, 2023).
# Where two headings read alike, the source gives them in different places.
# B1: Recombinant VWF A2 domain fused to Fc (Fc fusion)
# chain: PGLLGVSTLGPKRNSMVLDVAFVLEGSDKIGEADFNRSKEFMEEVIQRMDVGQDSIHVTVLQYSYMVTVEYPFSEAQSKGDILQRVREIRYQGGNRTNTGLALRYLSDHSFLVSQGDREQAPNLVYMVTGNPASDEIKRLPGDIQVVPIGVGPNANVQELERIGWPNAPILIQDFETLPREAPDLVLQRCCSG
# B2: Recombinant VWF D4 domain fused to Fc (Fc fusion)
# chain: PCVCTGSSTRHIVTFDGQNFKLTGSCSYVLFQNKEQDLEVILHNGACSPGARQGCMKSIEVKHSALSVELHSDMEVTVNGRLVSVPYVGGNMEVNVYGAIMHEVRFNHLGHIFTFTPQNNEFQLQLSPKTFASKTYGLCGICDENGANDFMLRDGTVTTDWKTLVQEWTVQRPGQTCQPILEEQCLVPDSSHCQVLLLPLFAECHKVLAPATFYAICQQDSCHQEQVCEVIASYAHLCRTNGVCVDWRTPDFCAMSCPPSLVYNHCEHGCPRHCDGNVSSCGDHPSEGCFCPPDKVMLEGSCVPEEACTQCIGEDGVQHQFLEAWVPDHQPCQICTCLSGRKVNCTTQPCPT
# B3: Tie-2/Fc (Fc fusion, human, UniProt Q02763 23-748, looked up)
# chain: AMDLILINSLPLVSDAETSLTCIASGWRPHEPITIGRDFEALMNQHQDPLEVTQDVTREWAKKVVWKREKASKINGAYFCEGRVRGEAIRIRTMKMRQQASFLPATLTMTVDKGDNVNISFKKVLIKEEDAVIYKNGSFIHSVPRHEVPDILEVHLPHAQPQDAGVYSARYIGGNLFTSAFTRLIVRRCEAQKWGPECNHLCTACMNNGVCHEDTGECICPPGFMGRTCEKACELHTFGRTCKERCSGQEGCKSYVFCLPDPYGCSCATGWKGLQCNEACHPGFYGPDCKLRCSCNNGEMCDRFQGCLCSPGWQGLQCEREGIQRMTPKIVDLPDHIEVNSGKFNPICKASGWPLPTNEEMTLVKPDGTVLHPKDFNHTDHFSVAIFTIHRILPPDSGVWVCSVNTVAGMVEKPFNISVKVLPKPLNAPNVIDTGHNFAVINISSEPYFGDGPIKSKKLLYKPVNHYEAWQHIQVTNEIVTLNYLEPRTEYELCVQLVRRGEGGEGHPGPVRRFTTASIGLPPPRGLNLLPKSQTTLNLTWQPIFPSSEDDFYVEVERRSVQKSDQQNIKVPGNLTSVLLNNLHPREQYVVRARVNTKAQGEWSEDLTAWTLSDILPPQPENIKISNITHSSAVISWTILDGYSISSITIRYKVQGKNEDQHVDVKIKNATITQYQLKGLEPETAYQVDIFAENNIGSSNPAFSHELVTLPESQAPADLGGGKMLL
# B4: Recombinant human angiopoietin-1 (ligand, UniProt Q15389 16-498, looked up)
# chain: HIGCSNQRRSPENSGRRYNRIQHGQCAYTFILPEHDGNCRESTTDQYNTNALQRDAPHVEPDFSSQKLQHLEHVMENYTQWLQKLENYIVENMKSEMAQIQQNAVQNHTATMLEIGTSLLSQTAEQTRKLTDVETQVLNQTSRLEIQLLENSLSTYKLEKQLLQQTNEILKIHEKNSLLEHKILEMEGKHKEELDTLKEEKENLQGLVTRQTYIIQELEKQLNRATTNNSVLQKQQLELMDTVHNLVNLCTKEGVLLKGGKREEEKPFRDCADVYQAGFNKSGIYTIYINNMPEPKKVFCNMDVNGGGWTVIQHREDGSLDFQRGWKEYKMGFGNPSGEYWLGNEFIFAITSQRQYMLRIELMDWEGNRAYSQYDRFHIGNEKQNYRLYLKGHTGTAGKQSSLILHGADFSTKDADNDNCMCKCALMLTGGWWFDACGPSNLNGMFYTAGQNHGKLNGIKWHYFKGPSYSLRSTTMMIRPLDF
# B5: Recombinant human angiopoietin-2 (ligand, UniProt O15123 19-496, looked up)
# chain: YNNFRKSMDSIGKKQYQVQHGSCSYTFLLPEMDNCRSSSSPYVSNAVQRDAPLEYDDSVQRLQVLENIMENNTQWLMKLENYIQDNMKKEMVEIQQNAVQNQTAVMIEIGTNLLNQTAEQTRKLTDVEAQVLNQTTRLELQLLEHSLSTNKLEKQILDQTSEINKLQDKNSFLEKKVLAMEDKHIIQLQSIKEEKDQLQVLVSKQNSIIEELEKKIVTATVNNSVLQKQQHDLMETVNNLLTMMSTSNSAKDPTVAKEEQISFRDCAEVFKSGHTTNGIYTLTFPNSTEEIKAYCDMEAGGGGWTIIQRREDGSVDFQRTWKEYKVGFGNPSGEYWLGNEFVSQLTNQQRYVLKIHLKDWEGNEAYSLYEHFYLSSEELNYRIHLKGLTGTAGKISSISQPGNDFSTKDGDNDKCICKCSQMLTGGWWFDACGPSNLNGMYYPQRQNTNKFNGIKWYYWKGSGYSLKATTMMIRPADF
# Assays:
# Assay in all cases: ELISA
# [1] = target: Recombinant VWF fragment D’-D3-HPC4
# [2] = target: Recombinant human angiopoietin-2 (human) (UniProt O15123)
# [3] = target: B5
# [4] = target: B5; remark: listed apart in the source
# [5] = target: B4
# Tie-2/Fc = target: B3
# [6] = target: von Willebrand factor (plasma-derived) (human (endogenous in plasma), UniProt P04275 764-2813)
molecule,measurement,setting,value
Recombinant FVIII (from UniProt P00451 20-2351) (natural protein),maximal percent inhibition of binding to Ang-2,[1],77%
Recombinant VWF fragment D’-D3-HPC4 (domain or fragment),EC50,[2],159 nM
B1,EC50,[3],36.7 ± 9.7 nM
B2,EC50,[3],18 ± 6 nM
B3,EC50,[4],0.2 ± 0.1 nM
same,EC50,[5],0.2 ± 0.1 nM
B4,binding result,Tie-2/Fc,binds
B5,binding result,Tie-2/Fc,binds
same,EC50,[6],5.3 ± 1 nM
